Article doi:10.1101/2025.05.19.654868

Experiments:
[1] = target: S16L/R18S/N21K (LSK) crosslinked (disulfide-stabilised) HIV-1 CA hexamer (HIV-1); assay: crystal structure; crosslinked CA hexamer 12 mg/ml mixed with 1-5 mM IP6; sitting-drop vapour diffusion, 17 °C, MORPHEUS I screen
[2] = target: S16N/R18S/N21K (NSK) crosslinked (disulfide-stabilised) HIV-1 CA hexamer (HIV-1); assay: as above

Substance	stoichiometry N [1]	stoichiometry N [2]
S16L/R18S/N21K (LSK) crosslinked (disulfide-stabilised) HIV-1 CA hexamer (complex)	6	–
S16N/R18S/N21K (NSK) crosslinked (disulfide-stabilised) HIV-1 CA hexamer (complex)	–	6
